Data on four molecules can be found in PMC5223167.

For this series, the target named is T1, PPE2 (Mycobacterium tuberculosis (BAC-Rv329 …, UniProt P9WI47)).
T1 sequence: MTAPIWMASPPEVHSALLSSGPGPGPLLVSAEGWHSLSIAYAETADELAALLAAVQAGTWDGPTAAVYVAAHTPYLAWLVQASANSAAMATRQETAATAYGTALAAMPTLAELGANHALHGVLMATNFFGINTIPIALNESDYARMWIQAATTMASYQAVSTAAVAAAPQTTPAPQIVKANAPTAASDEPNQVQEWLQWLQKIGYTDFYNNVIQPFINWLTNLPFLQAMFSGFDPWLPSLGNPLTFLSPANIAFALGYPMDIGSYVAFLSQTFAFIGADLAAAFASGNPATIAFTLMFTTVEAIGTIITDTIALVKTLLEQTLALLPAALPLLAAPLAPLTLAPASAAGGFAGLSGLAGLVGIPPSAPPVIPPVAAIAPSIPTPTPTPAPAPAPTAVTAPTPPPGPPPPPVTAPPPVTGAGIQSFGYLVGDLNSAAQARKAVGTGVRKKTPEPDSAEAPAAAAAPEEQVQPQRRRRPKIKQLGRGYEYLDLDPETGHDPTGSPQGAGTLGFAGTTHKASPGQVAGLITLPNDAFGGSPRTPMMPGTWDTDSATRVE
The experiment in a line: EMSA; 20 mM HEPES (pH not stated), 0.5 mM DTT, 0.5 mM EDTA, 5% glycerol, room temperature, 30 min; […]. The following applies: protein: recombinant; tags: N-terminal His (pRSET A); label: 32P 5' end; blunt. Background: Mobility shift assays separate free from complexed probe on a gel.

B1: IRF-1 consensus (dsDNA)
DNA 1: CACTGTCAATATTTCACTTTCATAATG
DNA 2: CATTATGAAAGTGAAATATTGACAGTG
With B1, the binding result is recorded as “no binding”.

B2: inos proximal GATA-1 element (overlaps TATA box) (dsDNA)
DNA 1: GGGGTATAAATACCTGATGGCTGCTGCCAG
DNA 2: CTGGCAGCAGCCATCAGGTATTTATACCCC
On to B2, for which the binding result is reported as “binds”.

B3: NF-kB consensus (dsDNA)
DNA 1: AGTTGAGGGGACTTTCCCAGGC
DNA 2: GCCTGGGAAAGTCCCCTCAACT
As to B3, the binding result is reported as “no binding”.

B4: GATA consensus (dsDNA)
DNA 1: CACTTGATAACAGAAAGTGATAACTCT
DNA 2: AGAGTTATCACTTTCTGTTATCAAGTG
Regarding B4, the binding result was “binds”.
